Ends that are not written are not given here.
B1: CXCR20032 (bispecific antibody)
chain: EVQLVESGGELVQPGGSLRLSCAASGSILTINAMGWYRQAPGKQRELVVRRTRGGSTTYQDSVKGRFTISADIAKKTMYLQMNSLKPEDTAVYYCMLDDRGGVYWGQGTQVTVSSGGGGSGGGGSGGGGSGGGGSGGGGSGGGGSGGGGSEVQLVESGGGLVQAGGSLRLSCAASGRTFSDYAMGWFRQAPGKEREFVAAITWNGGRVFYTASVKGRFTISRDNAKNTMYLQMNSLKPEDTAVYYCAADKDRRTDYLGHPVAYWGQGTQVTVSS
notes: Biparatopic: two VHH joined by a GlySer linker; also called 2B2-35GS-163D2; not shown: C-terminal c-myc tag and His6 tag coded by pAX100
B2: CXCR20021 (bispecific antibody)
chain: EVQLVESGGGLVQAGESLRLSCAASGSTFDFKVMGWYRQPPGKQREGVAAIRLSGNMHYAESVKGRFTISKANAKNTVYLQMNSLRPEDTAVYYCKVNIRGQDYWGQGTQVTVSSGGGGSGGGGSGGGGSGGGGSGGGGSGGGGSGGGGSEVQLVESGGGLVQPGGSLRLSCVASGRIFSSNAMGWFRQAPGKEREFVAAITWRSGGSAYYADSAKGRFTISRDNAKNTVYLQMNSLKPEDTAVYYCAAGGSSWLSFPPDYWGQGTQVTVSS
notes: Biparatopic: two VHH joined by a GlySer linker; also called 127D1-35GS-163E3; 127D1-163E3; not shown: C-terminal c-myc tag and His6 tag coded by pAX100
B3: CXCR20031 (bispecific antibody)
chain: EVQLVESGGELVQPGGSLRLSCAASGSILTINAMGWYRQAPGKQRELVVRRTRGGSTTYQDSVKGRFTISADIAKKTMYLQMNSLKPEDTAVYYCMLDDRGGVYWGQGTQVTVSSGGGGSGGGGSGGGGSGGGGSGGGGSGGGGSGGGGSEVQLVESGGGLVQPGGSLRLSCVASGRIFSSNAMGWFRQAPGKEREFVAAITWRSGGSAYYADSAKGRFTISRDNAKNTVYLQMNSLKPEDTAVYYCAAGGSSWLSFPPDYWGQGTQVTVSS
notes: Biparatopic: two VHH joined by a GlySer linker; also called 2B2-35GS-163E3; not shown: C-terminal c-myc tag and His6 tag coded by pAX100
B4: CXCR20022 (VHH)
chain: EVQLVESGGGLVQAGGSLRLSCAASGRTFSDYAMGWFRQAPGKEREFVAAITWNGGRVFYTASVKGRFTISRDNAKNTMYLQMNSLKPEDTAVYYCAADKDRRTDYLGHPVAYWGQGTQVTVSSGGGGSGGGGSGGGGSGGGGSGGGGSGGGGSGGGGSEVQLVESGGGLVQAGGSLRLSCAASGRTFSDYAMGWFRQAPGKEREFVAAITWNGGRVFYTASVKGRFTISRDNAKNTMYLQMNSLKPEDTAVYYCAADKDRRTDYLGHPVAYWGQGTQVTVSS
notes: Bivalent: two VHH joined by a GlySer linker; also called 163D2-35GS-163D2; not shown: C-terminal c-myc tag and His6 tag coded by pAX100
B5: 126B11 (VHH)
VHH: EVQLVESGGGLVQAGGSLTLSCAVSGSSFRINTMGWYRRAPGKQRELVAARDRGGYINYVDSVKGRFTVSRDNAKPTMYLQMNSLKPEDTAVYYCHAGTQDRTGRNFDHWGQGTQVTVSS
notes: Tested as periplasmic extract only; not shown: C-terminal c-myc tag and His6 tag coded by the vector
B6: 139D5 (VHH)
VHH: EVKLVESGGGLVQAGGSLRLSCALSGRIGSINAMGWYRQVSGQQRELVAVSRSGGSTDIADSVKGRFTISRDNGKNTVYLQMDSLKPEDTAVYYCYAHTSSYSNWRVYNNDYWGQGTQVTVSS
notes: Tested as periplasmic extract only; also called 139D05; not shown: C-terminal c-myc tag and His6 tag coded by the vector
B7: 145D3 (VHH)
VHH: EVQLVESGGGLVQAGGSLSLSCAASGLIFRLSGMAWYRQAPGRQREWVAVLTKDGTLHYADPVKGRFTISRNNAENTWYLQMNSLKPEDTAIYYCNTGRYWGQGTQVTVSS
notes: Tested as periplasmic extract only; also called 145D03; not shown: C-terminal c-myc tag and His6 tag coded by the vector
B8: 139H2 (VHH)
VHH: EVQLVESGGGLVQAGGSLRLSCAASGRTFSNYAMGWFRQATGKEREFVAAINKSGGNTHYAGSVKGRFTISRDNAKNTVYLQMNSLKPRDTAVYYCAASRTNPKPDYWGQGTQVTVSS
notes: Tested as periplasmic extract only; also called 139H02; not shown: C-terminal c-myc tag and His6 tag coded by the vector
B9: 143B3 (VHH)
VHH: EVQLVESGGGLVQPGGSLRLSCAASGFTFSTYWMYWVRQAPGKGLDWVSAINAGGDSTYYADPVKGRFTISRDNNKNTLYLQMNSLKPEDTALYYCATVRGTARDLDYWGQGTQVTVSS
notes: Tested as periplasmic extract only; also called 143B03; not shown: C-terminal c-myc tag and His6 tag coded by the vector
B10: 159B10 (VHH)
VHH: EVQLVESGGGLVQPGGSLRLSCAASGRTFSSLSMGWFRQAPGKERAFVAALTRNGGYRYYADSVKGRFTISRDVAKKTLYLQMNSLKPEDTAVYYCAADSLSGSDYLGTNLDYWGQGTQVTVSS
notes: as for B5
B11: 145C9 (VHH)
VHH: EVQLVESGGGLVQAGGSLRLSCAASGFTFDDYAIGWFRQAPGKERERVSCISGSDGSTYYADSVKGRFTISSDNAKNTVYLQMNNLKPEDTAVYYCAAYWGLTLRLWMPPHRYDYWGQGTQVTVSS
notes: Tested as periplasmic extract only; also called 145C09; not shown: C-terminal c-myc tag and His6 tag coded by the vector
B12: 143A5 (VHH)
VHH: KVQLVESGGGLVQAGGSLRLSCAASGRAFNYYVMAWFRQAQGKEREFVAAISTRGSMTKYSDSVQGRFTISRDNAKNTVYLHMNSLKPEDTAVYYCAADPRGSSWSFSSGGYDYWGQGTQVTVSS
notes: Tested as periplasmic extract only; also called 143A05; not shown: C-terminal c-myc tag and His6 tag coded by the vector

Each binder was assayed against T1, Human CXCR2 (human, UniProt P25025 1-360) (assay: cell-based or functional assay).
T1 sequence: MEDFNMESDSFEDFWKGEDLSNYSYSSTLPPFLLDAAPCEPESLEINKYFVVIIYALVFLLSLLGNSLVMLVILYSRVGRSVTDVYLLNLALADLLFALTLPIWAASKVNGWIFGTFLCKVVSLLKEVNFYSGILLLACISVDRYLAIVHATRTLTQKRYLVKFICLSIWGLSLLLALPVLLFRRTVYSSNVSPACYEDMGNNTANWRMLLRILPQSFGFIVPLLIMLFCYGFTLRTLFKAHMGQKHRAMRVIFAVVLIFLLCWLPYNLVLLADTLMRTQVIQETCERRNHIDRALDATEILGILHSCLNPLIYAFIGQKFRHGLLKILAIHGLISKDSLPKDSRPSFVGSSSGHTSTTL

Binder	FLIPR % inhibition of max	FLIPR IC50 (GRO-α induced calcium release)
B1	100%	14.7 nM
B2	100%	7.32 nM
B3	100%	15.2 nM
B4	100%	9.34 nM

Target: T2, Cynomolgus CXCR2 (cynomolgus, UniProt Q28519 3-353 (rhesus entry))
T2 chain: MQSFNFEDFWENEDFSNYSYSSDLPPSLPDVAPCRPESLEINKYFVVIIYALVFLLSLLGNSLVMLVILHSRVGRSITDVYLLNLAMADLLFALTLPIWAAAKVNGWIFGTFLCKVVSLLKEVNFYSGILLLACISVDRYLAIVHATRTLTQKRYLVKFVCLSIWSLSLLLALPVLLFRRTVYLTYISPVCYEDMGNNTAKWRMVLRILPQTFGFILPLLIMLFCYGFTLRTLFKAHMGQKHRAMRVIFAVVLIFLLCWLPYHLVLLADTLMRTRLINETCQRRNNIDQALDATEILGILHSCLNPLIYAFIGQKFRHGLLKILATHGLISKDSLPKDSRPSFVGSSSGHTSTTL
Experiment: cell-based or functional assay

Binder	FLIPR % inhibition of max	FLIPR IC50 (GRO-α induced calcium release)
B1	100%	3.65 nM
B2	100%	2.31 nM
B3	100%	4.26 nM
B4	100%	8.64 nM

Target: T1, Human CXCR2
Experiment: cell-based or functional assay
Remark: another data set of the same source

Binder	[35S]GTPγS % inhibition of max (ENA-78)	[35S]GTPγS % inhibition of max (IL-8)	[35S]GTPγS IC50 (ENA-78)	[35S]GTPγS IC50 (IL-8)	[35S]GTPγS % inhibition of max (GRO-α)	[35S]GTPγS IC50 (GRO-α)
B1	100%	100%	0.116 nM	0.997 nM	–	–
B2	100%	100%	0.787 nM	0.827 nM	100%	0.551 nM
B3	100%	100%	1.38 nM	0.84 nM	–	–
B4	–	–	–	–	100%	28.5 nM

What follows are binders tested against T1, Human CXCR2 (assay: FACS competition vs 3 nM FMAT-Blue Gro-α).
Procedure: (§1) Multivalent anti-CXCR2Nanobodies were titrated against 3 nM FMAT-Blue-labeled Gro-α in the FACS ligand competition assay on human and cynomolgus CXCR2 (Table 14). On human CXCR2, blocking potencies range between double digit nM and sub-nM whereas on cynomolgus CXCR2, they range between single and double digit nM.

Binder	% inhibition of max	IC50
B1	100%	0.5 nM
B2	99.5%	1.09 nM
B3	100%	0.49 nM
B4	100%	4.14 nM

Target: T2, Cynomolgus CXCR2
Experiment: FACS competition vs 3 nM FMAT-Blue Gro-α
Procedure: as §1

Binder	% inhibition of max	IC50
B1	99%	1.91 nM
B2	98.5%	1.85 nM
B3	99%	1.98 nM
B4	98%	8.01 nM

These binders were tested against T1, Human CXCR2 (assay: FACS, periplasmic extract vs FMAT Blue Gro-α).
Procedure: Periplasmic extracts (as described above) were analyzed on FACS for competition with Gro-α in binding to human CXCR2. 2×10⁵ cells were incubated with a ½ dilution of periplasmic extracts in FACS buffer (PBS+10% fetal bovine serum (Sigma, F7524)) for 30 minutes at 4° C. Then, an equal volume of 6 nM of FMAT Blue-labeled human Gro-α in FACS buffer was added and incubation was continued for another 30 minutes at 4° C. in the dark. Cells were then washed three times in FACS buffer and finally resuspended in FACS buffer. Dead cells were stained with propidium iodide (Sigma, P4170). Samples were then analyzed on a FACSarray (BD Biosciences).

Binder	FACS Gro-α competition (% inhibition)
B5	36.9%
B6	56.8%
B7	77.9%
B8	50.5%
B9	70.8%
B10	75.8%
B11	53.5%
B12	72.6%

Target: T3, Human 1to19 peptide (human)
T3 construct: First 19 N-terminal amino acids of human CXCR2, captured on neutravidin; also called human CXCR2 1 to19 peptide; 1-19 Nter peptide
T3 peptide: MEDFNMESDSFEDFWKGED-biotin
Experiment: ELISA, periplasmic extract on biotinylated peptide
Procedure: In another setup, periplasmic extracts were analyzed for binding to human 1 to 19 peptide by ELISA. MaxiSorb plates (Nunc, 430341) were coated for two hours with neutravidin followed by one hour blocking (PBS, 1% casein). Then 100 nM biotinylated human 1 to 19 peptide was added to these plates for one hour (PBS, 0.1% casein, 0.05% tween20) followed by one hour incubation with 10-fold dilutions of periplasmic extracts. Unbound periplasmic extracts were washed away (PBS supplemented with 0.05% tween20) and bound Nanobodies were detected using mouse anti-myc (Roche, 11667149001) followed by rabbit anti-mouse-HRP conjugate (Dakocytomation, P0260). Table 8 summarizes the ratios of the binding signals of anti-CXCR2Nanobodies over an irrelevant control Nanobody.

Binder	ratio of binding signal relative to blank control
B6	0.8 ratio
B8	1.7 ratio
B10	0.8 ratio

Reference: US20130330346A1 (Novartis, published 2013)
